Results reported in patent US20240158448A1 (University of Pennsylvania, published 2024).
Positions of bridges follow the written chain, without caps; N, C: chain ends. No end group written: not given here.

T1: mouse SIRPα expressed on primary bone marrow derived macrophages (C57BL6/J) (mouse, UniProt P97797 32-513)
T1 sequence (looked up): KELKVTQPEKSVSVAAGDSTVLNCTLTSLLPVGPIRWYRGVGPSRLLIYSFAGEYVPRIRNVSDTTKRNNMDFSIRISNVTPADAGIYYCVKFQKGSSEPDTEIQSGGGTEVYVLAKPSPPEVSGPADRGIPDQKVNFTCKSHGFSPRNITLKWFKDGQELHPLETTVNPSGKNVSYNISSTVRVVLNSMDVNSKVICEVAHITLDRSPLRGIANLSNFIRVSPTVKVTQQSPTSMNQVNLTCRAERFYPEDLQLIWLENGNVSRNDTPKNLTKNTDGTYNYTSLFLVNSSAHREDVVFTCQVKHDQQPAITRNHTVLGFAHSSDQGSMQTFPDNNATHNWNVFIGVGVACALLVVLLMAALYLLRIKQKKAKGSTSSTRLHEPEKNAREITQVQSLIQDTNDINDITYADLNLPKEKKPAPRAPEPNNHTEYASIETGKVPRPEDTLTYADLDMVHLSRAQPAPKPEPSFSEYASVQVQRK

T2: mouse SIRPα expressed on J774A.1 macrophages (mouse, UniProt P97797 32-513)
T2 sequence (looked up): T1 sequence (looked up)

B1: nS-FF, (VTELFREG-PEG5)2-K (peptide)
peptide: VTELFREG
chain: K
modifications: not fully specified; core Lys carrying one PEG5-peptide arm on each of its two amines; C-terminal amide; C-terminus joined through a PEG5 linker to one of the two amines of the core Lys
B2: nS-F-Cyc (peptide)
peptide: CVTELFREGC
HELM: PEPTIDE1{C.V.T.E.L.F.R.E.G.C.[am]}$PEPTIDE1,PEPTIDE1,1:R3-10:R3$$$V2.0; N-terminus assumed
SMILES: CC(C)C[C@@H]1NC(=O)[C@H](CCC(=O)O)NC(=O)[C@H]([C@@H](C)O)NC(=O)[C@H](C(C)C)NC(=O)[C@@H](N)CSSC[C@@H](C(N)=O)NC(=O)CNC(=O)[C@H](CCC(=O)O)NC(=O)[C@H](CCCNC(=N)N)NC(=O)[C@H](Cc2ccccc2)NC1=O

Experiments:
Assay in all cases: cell-based or functional assay
[1] = target: T1, mouse SIRPα expressed on primary bone …
[2] = target: T2, mouse SIRPα expressed on J774A.1 …
[3] = target: human SIRPα expressed on cells (PMA-differentiated THP-1 macrophages; A549 cells) (human, UniProt P78324 31-504)

Row | Binder | maximum phagocytosis of opsonized B16 cells by mouse BMDMs [1] | increase in THP-1 macrophage phagocytosis of opsonized RBCs relative to nS-wt [3] | maximum phagocytosis of opsonized RBCs by THP-1 macrophages [3] | also measured
1 | VTELFREG-NH2 [nS-F] | ~25% | ~25% | ~25% | phagocytosis of opsonized RBCs by J774A.1 macrophages, relative to nS-X [2]: 3 fold
2 | B1 |  |  |  | activity relative to nS-wt in phagocytosis of opsonized RBCs [3]: > 100 fold; increase in phagocytic macrophages relative to anti-CD47 on opRBC [3]: ~10%
3 | VTELTREG-NH2 [nS-wt (nano-Self wild-type peptide)] |  |  |  | fold decrease in effective activity in the mouse macrophage phagocytosis assay relative to the human assay [2]: ~100 fold
4 | CVELTREGC-NH2 (disulfide 1-9; not fully specified) [nS-Cyc (cyclic nano-Self peptide)] | ~25% |  | ~25% | 
5 | B2 | ~25% | ~25% | ~25% | 
